Test results: IntAct's records for PubMed 25910212

B1: Keratin, type II cytoskeletal 6A (Homo sapiens), P02538 (parent)
chain: MASTSTTIRSHSSSRRGFSANSARLPGVSRSGFSSVSVSRSRGSGGLGGACGGAGFGSRSLYGLGGSKRISIGGGSCAISGGYGSRAGGSYGFGGAGSGFGFGGGAGIGFGLGGGAGLAGGFGGPGFPVCPPGGIQEVTVNQSLLTPLNLQIDPTIQRVRAEEREQIKTLNNKFASFIDKVRFLEQQNKVLETKWTLLQEQGTKTVRQNLEPLFEQYINNLRRQLDSIVGERGRLDSELRGMQDLVEDFKNKYEDEINKRTAAENEFVTLKKDVDAAYMNKVELQAKADTLTDEINFLRALYDAELSQMQTHISDTSVVLSMDNNRNLDLDSIIAEVKAQYEEIAQRSRAEAESWYQTKYEELQVTAGRHGDDLRNTKQEIAEINRMIQRLRSEIDHVKKQCANLQAAIADAEQRGEMALKDAKNKLEGLEDALQKAKQDLARLLKEYQELMNVKLALDVEIATYRKLLEGEECRLNGEGVGQVNISVVQSTVSSGYGGASGVGSGLGLGGGSSYSYGSGLGVGGGFSSSSGRAIGGGLSSVGGGSSTIKYTTTSSSSRKSYKH
partner: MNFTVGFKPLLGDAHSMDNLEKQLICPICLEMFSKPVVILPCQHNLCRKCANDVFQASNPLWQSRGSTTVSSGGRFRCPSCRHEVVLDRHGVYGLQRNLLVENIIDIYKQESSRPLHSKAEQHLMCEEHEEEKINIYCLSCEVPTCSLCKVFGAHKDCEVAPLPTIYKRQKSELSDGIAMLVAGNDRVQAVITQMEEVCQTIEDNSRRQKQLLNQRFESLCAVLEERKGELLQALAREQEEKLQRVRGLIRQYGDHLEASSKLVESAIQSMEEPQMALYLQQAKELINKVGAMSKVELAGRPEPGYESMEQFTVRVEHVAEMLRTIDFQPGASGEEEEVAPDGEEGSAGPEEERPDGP
B2: Keratin, type II cytoskeletal 6A (Homo sapiens), P02538 (parent)
chain: B1 chain

Variants of: B1
Details: with tri54_human TRIM54, Q9BYV2

**Q.** With F174V as the variant, how does the “effect of a mutation on the interaction” value read?
**A.** The value was “causing an interaction”.

Variants of: B1
Details: with tri54_human TRIM54, Q9BYV2
Remark: another data set of the same source

**Q.** For F174V, which “effect of a mutation on the interaction” value is on record?
**A.** Its value is “with no effect”.

**Q.** V523F was tested. Which “effect of a mutation on the interaction” value did it give?
**A.** The value was “with no effect”.

**Q.** How did the “effect of a mutation on the interaction” value turn out when N171K was run?
**A.** Its value is “with no effect”.

**Q.** With A463P as the variant, how does the “effect of a mutation on the interaction” value read?
**A.** The value was “disrupting interaction strength”.

**Q.** T552S was tested. Which “effect of a mutation on the interaction” value did it give?
**A.** The value was “with no effect”.

**Q.** Which “effect of a mutation on the interaction” value does the source give for I462S here?
**A.** Its value is “with no effect”.

Variants of: B2
Details: with KRT15, P19012
Sequence of KRT15, P19012 (P19012 whole entry): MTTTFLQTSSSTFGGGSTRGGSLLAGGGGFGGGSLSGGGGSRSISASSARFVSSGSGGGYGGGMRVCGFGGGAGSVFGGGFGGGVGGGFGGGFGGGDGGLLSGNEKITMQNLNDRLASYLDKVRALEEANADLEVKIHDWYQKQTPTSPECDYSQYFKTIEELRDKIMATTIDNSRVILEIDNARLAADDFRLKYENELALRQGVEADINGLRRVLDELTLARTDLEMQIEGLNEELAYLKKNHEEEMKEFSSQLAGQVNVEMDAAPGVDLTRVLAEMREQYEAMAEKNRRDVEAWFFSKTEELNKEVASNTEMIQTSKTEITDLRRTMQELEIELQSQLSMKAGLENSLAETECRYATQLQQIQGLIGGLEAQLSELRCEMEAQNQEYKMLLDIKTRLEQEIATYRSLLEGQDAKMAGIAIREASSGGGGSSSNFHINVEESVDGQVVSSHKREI

**Q.** With F249L as the variant, how does the “effect of a mutation on the interaction” value read?
**A.** Its value is “with no effect”.

**Q.** For T552S, which “effect of a mutation on the interaction” value is on record?
**A.** Its value is “with no effect”.

**Q.** How did the “effect of a mutation on the interaction” value turn out when V523F was run?
**A.** Its value is “with no effect”.

**Q.** With N21S as the variant, how does the “effect of a mutation on the interaction” value read?
**A.** Its value is “with no effect”.

Variants of: B2
Details: with KRT40, Q6A162
Sequence of KRT40, Q6A162 (Q6A162 whole entry): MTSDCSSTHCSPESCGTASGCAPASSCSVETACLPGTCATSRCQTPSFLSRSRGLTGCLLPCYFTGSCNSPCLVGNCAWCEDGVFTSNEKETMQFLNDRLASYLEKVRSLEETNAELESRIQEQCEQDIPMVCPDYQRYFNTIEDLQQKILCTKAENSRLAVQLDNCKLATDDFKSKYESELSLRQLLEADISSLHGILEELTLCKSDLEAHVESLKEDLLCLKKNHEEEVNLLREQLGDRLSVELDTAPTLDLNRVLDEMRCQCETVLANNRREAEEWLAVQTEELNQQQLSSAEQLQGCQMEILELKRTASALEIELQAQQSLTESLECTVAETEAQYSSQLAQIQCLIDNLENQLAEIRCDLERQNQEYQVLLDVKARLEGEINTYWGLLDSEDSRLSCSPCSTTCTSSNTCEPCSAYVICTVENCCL

**Q.** Which “effect of a mutation on the interaction” value does the source give for F249L here?
**A.** The value was “with no effect”.

**Q.** With I462S as the variant, how does the “effect of a mutation on the interaction” value read?
**A.** The value was “disrupting interaction strength”.

**Q.** A463P was tested. Which “effect of a mutation on the interaction” value did it give?
**A.** The value was “disrupting interaction strength”.

**Q.** With T552S as the variant, how does the “effect of a mutation on the interaction” value read?
**A.** Its value is “with no effect”.

**Q.** How did the “effect of a mutation on the interaction” value turn out when V523F was run?
**A.** Its value is “with no effect”.

**Q.** With N21S as the variant, how does the “effect of a mutation on the interaction” value read?
**A.** Its value is “with no effect”.

Variants of: B2
Details: with k1h1_human KRT31, Q15323
Sequence of k1h1_human KRT31, Q15323 (Q15323 whole entry): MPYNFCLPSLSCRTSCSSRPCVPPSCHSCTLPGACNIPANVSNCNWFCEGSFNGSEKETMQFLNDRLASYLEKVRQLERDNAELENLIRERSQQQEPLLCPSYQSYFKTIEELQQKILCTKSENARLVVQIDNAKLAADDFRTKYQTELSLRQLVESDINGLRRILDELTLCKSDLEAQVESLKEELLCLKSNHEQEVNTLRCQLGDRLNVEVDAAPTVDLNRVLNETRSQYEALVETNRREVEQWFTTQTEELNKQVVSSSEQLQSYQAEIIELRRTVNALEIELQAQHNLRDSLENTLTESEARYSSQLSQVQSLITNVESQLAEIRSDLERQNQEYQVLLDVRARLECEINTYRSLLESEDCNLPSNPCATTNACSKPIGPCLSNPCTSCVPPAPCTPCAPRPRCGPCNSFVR

**Q.** F249L was tested. Which “effect of a mutation on the interaction” value did it give?
**A.** Its value is “with no effect”.

**Q.** For T552S, which “effect of a mutation on the interaction” value is on record?
**A.** The value was “with no effect”.

**Q.** Which “effect of a mutation on the interaction” value does the source give for V523F here?
**A.** The value was “with no effect”.

**Q.** How did the “effect of a mutation on the interaction” value turn out when N21S was run?
**A.** Its value is “with no effect”.

Variants of: B2
Details: with tfp11_human TFIP11, Q9UBB9
Sequence of tfp11_human TFIP11, Q9UBB9 (Q9UBB9 whole entry): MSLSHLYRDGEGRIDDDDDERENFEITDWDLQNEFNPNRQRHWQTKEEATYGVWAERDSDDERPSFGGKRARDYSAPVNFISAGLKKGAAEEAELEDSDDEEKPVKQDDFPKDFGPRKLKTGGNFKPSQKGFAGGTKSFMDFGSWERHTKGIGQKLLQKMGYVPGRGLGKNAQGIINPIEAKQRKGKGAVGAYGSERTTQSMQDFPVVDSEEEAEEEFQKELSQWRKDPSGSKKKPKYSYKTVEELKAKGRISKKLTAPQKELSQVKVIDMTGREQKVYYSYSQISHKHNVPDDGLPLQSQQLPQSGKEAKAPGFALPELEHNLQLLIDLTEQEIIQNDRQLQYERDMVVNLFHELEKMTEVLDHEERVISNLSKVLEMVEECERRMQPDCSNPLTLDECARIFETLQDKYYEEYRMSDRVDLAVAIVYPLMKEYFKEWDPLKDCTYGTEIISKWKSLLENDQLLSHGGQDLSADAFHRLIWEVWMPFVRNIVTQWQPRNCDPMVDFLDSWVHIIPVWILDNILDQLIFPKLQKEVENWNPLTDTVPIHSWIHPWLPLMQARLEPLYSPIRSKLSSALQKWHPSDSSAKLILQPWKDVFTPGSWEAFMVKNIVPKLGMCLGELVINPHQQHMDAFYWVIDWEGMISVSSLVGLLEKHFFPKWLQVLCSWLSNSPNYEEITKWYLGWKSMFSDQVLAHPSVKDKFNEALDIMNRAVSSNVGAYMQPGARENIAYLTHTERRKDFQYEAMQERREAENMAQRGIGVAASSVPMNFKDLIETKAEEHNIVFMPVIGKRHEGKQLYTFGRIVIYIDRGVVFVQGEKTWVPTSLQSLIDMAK

**Q.** Which “effect of a mutation on the interaction” value does the source give for F249L here?
**A.** The value was “with no effect”.

**Q.** Which “effect of a mutation on the interaction” value does the source give for I462S here?
**A.** The value was “disrupting interaction strength”.

**Q.** With T552S as the variant, how does the “effect of a mutation on the interaction” value read?
**A.** The value was “with no effect”.

**Q.** V523F was tested. Which “effect of a mutation on the interaction” value did it give?
**A.** Its value is “with no effect”.

**Q.** How did the “effect of a mutation on the interaction” value turn out when N21S was run?
**A.** The value was “with no effect”.

Variants of: B2
Details: with goga2_human GOLGA2, Q08379
Sequence of goga2_human GOLGA2, Q08379 (Q08379 whole entry): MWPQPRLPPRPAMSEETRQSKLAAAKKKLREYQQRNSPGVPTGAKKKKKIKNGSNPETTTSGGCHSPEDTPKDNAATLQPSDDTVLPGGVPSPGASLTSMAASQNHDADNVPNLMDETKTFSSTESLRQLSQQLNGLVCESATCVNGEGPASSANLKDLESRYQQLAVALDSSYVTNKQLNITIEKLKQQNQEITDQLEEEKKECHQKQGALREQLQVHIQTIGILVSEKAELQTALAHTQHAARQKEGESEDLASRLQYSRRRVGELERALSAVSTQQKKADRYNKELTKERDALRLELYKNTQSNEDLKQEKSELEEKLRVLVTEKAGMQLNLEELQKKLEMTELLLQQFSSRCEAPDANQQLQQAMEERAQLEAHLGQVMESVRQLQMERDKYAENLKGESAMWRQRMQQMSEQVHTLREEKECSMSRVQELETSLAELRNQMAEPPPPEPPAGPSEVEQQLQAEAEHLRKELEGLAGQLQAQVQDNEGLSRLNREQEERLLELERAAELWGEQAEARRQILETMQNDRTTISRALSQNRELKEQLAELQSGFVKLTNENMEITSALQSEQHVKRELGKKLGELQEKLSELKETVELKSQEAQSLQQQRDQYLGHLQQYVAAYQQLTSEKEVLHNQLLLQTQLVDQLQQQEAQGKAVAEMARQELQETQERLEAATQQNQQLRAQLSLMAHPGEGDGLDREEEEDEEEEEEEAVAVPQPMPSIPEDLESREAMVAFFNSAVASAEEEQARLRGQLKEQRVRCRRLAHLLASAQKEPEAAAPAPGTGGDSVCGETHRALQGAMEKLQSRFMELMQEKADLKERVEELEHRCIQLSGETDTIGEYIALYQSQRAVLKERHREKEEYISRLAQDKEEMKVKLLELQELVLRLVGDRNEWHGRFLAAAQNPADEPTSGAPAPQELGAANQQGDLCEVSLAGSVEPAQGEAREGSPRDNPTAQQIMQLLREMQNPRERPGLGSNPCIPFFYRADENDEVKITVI

**Q.** How did the “effect of a mutation on the interaction” value turn out when F249L was run?
**A.** The value was “with no effect”.

**Q.** F174V was tested. Which “effect of a mutation on the interaction” value did it give?
**A.** The value was “with no effect”.

**Q.** How did the “effect of a mutation on the interaction” value turn out when I462S was run?
**A.** The value was “with no effect”.

**Q.** How did the “effect of a mutation on the interaction” value turn out when N171K was run?
**A.** The value was “disrupting interaction strength”.

**Q.** With A463P as the variant, how does the “effect of a mutation on the interaction” value read?
**A.** The value was “with no effect”.

**Q.** For T552S, which “effect of a mutation on the interaction” value is on record?
**A.** Its value is “with no effect”.

**Q.** V523F was tested. Which “effect of a mutation on the interaction” value did it give?
**A.** The value was “with no effect”.

**Q.** How did the “effect of a mutation on the interaction” value turn out when N21S was run?
**A.** Its value is “with no effect”.

Variants of: B2
Details: with KRT15, P19012
Remark: another data set of the same source

**Q.** F174V was tested. Which “effect of a mutation on the interaction” value did it give?
**A.** The value was “with no effect”.

**Q.** For I462S, which “effect of a mutation on the interaction” value is on record?
**A.** Its value is “with no effect”.

**Q.** For N171K, which “effect of a mutation on the interaction” value is on record?
**A.** Its value is “with no effect”.

**Q.** With A463P as the variant, how does the “effect of a mutation on the interaction” value read?
**A.** Its value is “with no effect”.

Variants of: B2
Details: with KRT40, Q6A162
Remark: another data set of the same source

**Q.** F174V was tested. Which “effect of a mutation on the interaction” value did it give?
**A.** The value was “with no effect”.

**Q.** With I462S as the variant, how does the “effect of a mutation on the interaction” value read?
**A.** Its value is “with no effect”.

**Q.** How did the “effect of a mutation on the interaction” value turn out when N171K was run?
**A.** The value was “with no effect”.

**Q.** Which “effect of a mutation on the interaction” value does the source give for A463P here?
**A.** Its value is “with no effect”.

Variants of: B2
Details: with k1h1_human KRT31, Q15323
Remark: another data set of the same source

**Q.** With F174V as the variant, how does the “effect of a mutation on the interaction” value read?
**A.** Its value is “with no effect”.

**Q.** How did the “effect of a mutation on the interaction” value turn out when I462S was run?
**A.** The value was “with no effect”.

**Q.** How did the “effect of a mutation on the interaction” value turn out when N171K was run?
**A.** The value was “with no effect”.

**Q.** A463P was tested. Which “effect of a mutation on the interaction” value did it give?
**A.** The value was “with no effect”.

Variants of: B2
Details: with tfp11_human TFIP11, Q9UBB9
Remark: another data set of the same source

**Q.** Which “effect of a mutation on the interaction” value does the source give for F174V here?
**A.** Its value is “with no effect”.

**Q.** For I462S, which “effect of a mutation on the interaction” value is on record?
**A.** Its value is “with no effect”.

**Q.** For N171K, which “effect of a mutation on the interaction” value is on record?
**A.** The value was “with no effect”.

**Q.** With A463P as the variant, how does the “effect of a mutation on the interaction” value read?
**A.** The value was “disrupting interaction strength”.
